Key:
[1] = molecular target: T1, UbcH5B S22R C85K covalently linked to Ub (UbcH5B_(S22R)–Ub) (human, UniProt P62837 1-147; P0CG47 1-76, S22R | C85K, Lys85 (C85K) in a stable amide linkage to Ub | covalently linked to Lys85 of UbcH5B S22R C85K (amide linkage)); experiment: SPR; GST-cIAP1R coupled to a CM-5 chip, Biacore T200, 25 °C; analytes diluted in 25 mM Tris-HCl pH 7.6, 150 mM NaCl, 0.1 mg/ml BSA, 1 mM DTT, 0.005% Tween 20; GST alone subtracted; steady-state affinity analysis; conditions: both partners purified
T1 construct: UbcH5B, human Ub-conjugating enzyme (E2); ubiquitin (Ub), human, donor Ub; source: E. coli BL21 (DE3) Gold

[2] = molecular target: T2, UbcH5B C85K covalently linked to Ub (UbcH5B–Ub) (human, UniProt P62837 1-147; P0CG47 1-76, C85K, Lys85 (C85K) in a stable amide linkage to Ub | covalently linked to Lys85 of UbcH5B C85K (amide linkage)); experiment: as above; conditions: both partners purified
T2 construct: UbcH5B, human Ub-conjugating enzyme (E2); ubiquitin (Ub), human, donor Ub (Ub^D); the model of 6HPR holds residues 1-76; source: E. coli BL21 (DE3) Gold

UbcH5B = molecular target: T3, UbcH5B (human, UniProt P62837 1-147); experiment: as above; conditions: both partners purified
T3 construct: UbcH5B, human Ub-conjugating enzyme (E2), untagged; also called UbcH5B WT

[3] = molecular target: T1, UbcH5B S22R C85K covalently linked to …; experiment: SPR; as a1, but UbcH5B–Ub variants diluted in running buffer containing 0.6 mM UbΔGG; GST-cIAP1R coupled to a CM-5 chip, 25 °C; steady-state affinity analysis; conditions: both partners purified
[4] = molecular target: the molecule itself; experiment: crystal structure; cIAP1R, UbcH5B–Ub and Ub mixed at 1:1:1.2 molar ratio; sitting drop, 0.2 M ammonium fluoride, 15% PEG 3350, 19 °C; 1.7 Å; dimer generated by crystallographic symmetry
ubiquitin (Ub) = molecular target: T4, ubiquitin (Ub) (human, UniProt P0CG47 1-76); experiment: as above; conditions: both partners purified
T4 construct: ubiquitin (Ub), human; in the model of 6HPR Ub^B is chain B (residues 1-74 seen) and Ub^D chain D (residues 1-76); Free Ub was mixed into the crystallised complex as Ub^B; in the rows on Ub^D it stands for the Ub part of the conjugate m4; also called WT Ub

Binder	Kd [1] [nM]	Kd [2] [nM]	Kd (UbcH5B) [nM]	Kd [3] [nM]	binding result [4]	binding result (ubiquitin (Ub))
GST-cIAP1R (cIAP1 RING domain, residues 556-C, with GST) (domain or fragment, human, UniProt Q13490 556-618, looked up, pGEX4T1 with a TEV site after GST; the tag is not cleaved in this form; source: E. coli BL21 (DE3) Gold; not shown: GST, N-terminal, kept) LSLEEQLRRLQEERTCKVCMDKEVSVVFIPCGHLVVCQECAPSLRKCPICRGIIKGTVRTFLS	900 ± 10	830 ± 50	223000 ± 4000	990 ± 50		
cIAP1 RING domain (residues 556-C; cIAP1R) (domain or fragment, human, UniProt Q13490 556-618, looked up, Homodimer through the RING domain; in the crystal the dimer is generated by crystallographic symmetry; also called cIAP1 RING dimer; not shown: GST, N-terminal, cleaved) LSLEEQLRRLQEERTCKVCMDKEVSVVFIPCGHLVVCQECAPSLRKCPICRGIIKGTVRTFLS					binds	binds
